Experimental findings from patent US20200292555 are described below.

For the data set, the target named is T1, Ac-DEVD-CHO.
T1 chain: DEVD

B1: recombinant, purified active CASP10 (protein)
chain: VKTFLEALPQESWQNKHAGSNGNRATNGAPSLVSRGMQGASANTLNSETSTKRAAVYRMNRNHRGLCVIVNNHSFTSLKDRQGTHKDAEILSHVFQWLGFTVHIHNNVTKVEMEMVLQKQKCNPAHADGDCFVFCILTHGRFGAVYSSDEALIPIREIMSHFTALQCPRLAEKPKLFFIQACQGEEIQPSVSIEADALNPEQAPTSLQDSIPAEADFLLGLATVPGYVSFRHVEEGSWYIQSLCNHLKKLVPRMLKFLEKTMEIRGRKRTVWGAKQISATSLPTAISAQTPRPPMRRWSSVS
In the case of B1, the “activity of recombinant, purified active CASP10 (500 nM; fluorometric AEVD-AMC substrate in MDA-MB-231 lysate)” value was “DEVD-CHO ... (20 µM) inhibited the activity of CASP10”.
